# Laboratory results: patent US20220233706A1 (ANTIKOR BIOPHARMA, published 2022)
# Several values for one entry are separate records, joined by “and”; a condition that tells them apart may be missing. Identical values can stand only once.
# B1: scFv (TCT1067) (scFv)
# scFv: SGSGGSGQVQLVQSGAEVKKPGESLKISCKGSGYSFTSYWIAWVRQMPGKGLEYMGLIYPGDSDTKYSPSFQGQVTISVDKSVSTAYLQWSSLKPSDSAVYFCARHDVGYCTDRTCAAWPEWLGVWGQGTLVTVSSGGGGSGGGGSGGGGSQSVLTQPPSVSAAPGQKVTISCSGSSSNIGNNYVSWYQQLPGTAPKLLIYGHTNRPAGVPDRFSGSKSGTSASLAISGFRSEDEADYYCASWDYTLSGWVFGGGTKLTVLMASMTGGQQMG
# notes: also called unmodified scFv (TCT1067)
# B2: scFv (TCT1067)-Auristatin-F-C5 DAR 3.3 (scFv)
# scFv: SGSGGSGQVQLVQSGAEVKKPGESLKISCKGSGYSFTSYWIAWVRQMPGKGLEYMGLIYPGDSDTKYSPSFQGQVTISVDKSVSTAYLQWSSLKPSDSAVYFCARHDVGYCTDRTCAAWPEWLGVWGQGTLVTVSSGGGGSGGGGSGGGGSQSVLTQPPSVSAAPGQKVTISCSGSSSNIGNNYVSWYQQLPGTAPKLLIYGHTNRPAGVPDRFSGSKSGTSASLAISGFRSEDEADYYCASWDYTLSGWVFGGGTKLTVLMASMTGGQQMG
# modifications: Auristatin F-C5 on lysine residues; DAR 3.64 by AAA, 2.9 by MS, average 3.3
# notes: also called TCT1067-AF-C5 ADC 1
# B3: scFv (TCT1067)-Auristatin-F-C5 DAR 5.65 (scFv)
# scFv: SGSGGSGQVQLVQSGAEVKKPGESLKISCKGSGYSFTSYWIAWVRQMPGKGLEYMGLIYPGDSDTKYSPSFQGQVTISVDKSVSTAYLQWSSLKPSDSAVYFCARHDVGYCTDRTCAAWPEWLGVWGQGTLVTVSSGGGGSGGGGSGGGGSQSVLTQPPSVSAAPGQKVTISCSGSSSNIGNNYVSWYQQLPGTAPKLLIYGHTNRPAGVPDRFSGSKSGTSASLAISGFRSEDEADYYCASWDYTLSGWVFGGGTKLTVLMASMTGGQQMG
# modifications: Auristatin F-C5 on lysine residues; DAR 6.31 by AAA, 4.98 by MS, average 5.65
# notes: also called TCT1067-AF-C5 ADC2
# B4: scFv (TCT1067)-MMAF-C5 ADC 1 (DAR 5.2) (scFv)
# scFv: SGSGGSGQVQLVQSGAEVKKPGESLKISCKGSGYSFTSYWIAWVRQMPGKGLEYMGLIYPGDSDTKYSPSFQGQVTISVDKSVSTAYLQWSSLKPSDSAVYFCARHDVGYCTDRTCAAWPEWLGVWGQGTLVTVSSGGGGSGGGGSGGGGSQSVLTQPPSVSAAPGQKVTISCSGSSSNIGNNYVSWYQQLPGTAPKLLIYGHTNRPAGVPDRFSGSKSGTSASLAISGFRSEDEADYYCASWDYTLSGWVFGGGTKLTVLMASMTGGQQMG
# modifications: MMAF-C5 on lysine residues; DAR 6.4 by AAA, 4.0 by MS, average 5.2
# notes: also called scFv (TCT1067)-MMAF-C5 DAR 5.2; scFv (TCT1067)-MMAF-C5, DAR 6.4
# B5: scFv (TCT1067)-P5-C5 DAR 10.9 (scFv)
# scFv: SGSGGSGQVQLVQSGAEVKKPGESLKISCKGSGYSFTSYWIAWVRQMPGKGLEYMGLIYPGDSDTKYSPSFQGQVTISVDKSVSTAYLQWSSLKPSDSAVYFCARHDVGYCTDRTCAAWPEWLGVWGQGTLVTVSSGGGGSGGGGSGGGGSQSVLTQPPSVSAAPGQKVTISCSGSSSNIGNNYVSWYQQLPGTAPKLLIYGHTNRPAGVPDRFSGSKSGTSASLAISGFRSEDEADYYCASWDYTLSGWVFGGGTKLTVLMASMTGGQQMG
# modifications: P5-C5 on lysine residues; DAR 10.4 by AAA, 11.7 by MS, overall average 10.9
# notes: also called TCT1067-P5C5 ADC 1; compound 71
# B6: scFv (TCT)-Acetate DAR 15 (scFv)
# scFv: SGSGGSGQVQLVQSGAEVKKPGESLKISCKGSGYSFTSYWIAWVRQMPGKGLEYMGLIYPGDSDTKYSPSFQGQVTISVDKSVSTAYLQWSSLKPSDSAVYFCARHDVGYCSSSNCAAWPEYFQHWGQGTLVTVSSGGGGSGGGGSGGGGSQSVLTQPPSVSAAPGQKVTISCSGSSSNIGNNYVSWYQQLPGTAPKLLIYGHTNRPAGVPDRFSGSKSGTSASLAISGFRSEDEADYYCAAWDDSLSGWVFGGGTKLTVLMASMTGGQQMG
# modifications: acetyl groups (from Acetate-NHS) on lysines, N-terminal amine and further residues, 15 additions by LC-MS
# notes: also called TCT-acetate conjugate 1
# B7: scFv (TCT)-MMAF-C5 ADC 2 (DAR 6.8) (scFv)
# scFv: SGSGGSGQVQLVQSGAEVKKPGESLKISCKGSGYSFTSYWIAWVRQMPGKGLEYMGLIYPGDSDTKYSPSFQGQVTISVDKSVSTAYLQWSSLKPSDSAVYFCARHDVGYCSSSNCAAWPEYFQHWGQGTLVTVSSGGGGSGGGGSGGGGSQSVLTQPPSVSAAPGQKVTISCSGSSSNIGNNYVSWYQQLPGTAPKLLIYGHTNRPAGVPDRFSGSKSGTSASLAISGFRSEDEADYYCAAWDDSLSGWVFGGGTKLTVLMASMTGGQQMG
# modifications: MMAF-C5 on lysine residues; DAR 8.0 by AAA, 5.5 by MS, average 6.8
# notes: also called scFv (TCT)-MMAF-C5 DAR 6.8; scFv (TCT)-MMAF DAR 8
# B8: scFv (TCT)-MMAF-C5 ADC 1 (DAR 5.6) (scFv)
# scFv: SGSGGSGQVQLVQSGAEVKKPGESLKISCKGSGYSFTSYWIAWVRQMPGKGLEYMGLIYPGDSDTKYSPSFQGQVTISVDKSVSTAYLQWSSLKPSDSAVYFCARHDVGYCSSSNCAAWPEYFQHWGQGTLVTVSSGGGGSGGGGSGGGGSQSVLTQPPSVSAAPGQKVTISCSGSSSNIGNNYVSWYQQLPGTAPKLLIYGHTNRPAGVPDRFSGSKSGTSASLAISGFRSEDEADYYCAAWDDSLSGWVFGGGTKLTVLMASMTGGQQMG
# modifications: MMAF-C5 (from MMAF-C5-NHS, compound 78) on lysine residues; DAR 6.64 by AAA, 4.5 by MS, average 5.6
# notes: also called scFv (TCT)-MMAF-C5 1 DAR 5.6; scFv (TCT)-MMAF-C5, DAR 6.6
# Assays:
# [1] = target: T1, HER2 immobilised on a Biacore chip (UniProt P04626 23-652, limits assumed); assay: Biacore SPR, HER2 amine-coupled to the chip
# T1 construct: also called immobilised HER2 target antigen (Biacore SPR); HER2 chip
# [2] = target: T1, HER2 immobilised on a Biacore chip; assay: Biacore SPR, HER2 amine-coupled to the chip; unmodified scFv (TCT1067)
# Procedure: (§1) A standard amine-coupling method was used to prepare all Biacore surfaces (CM5 or CM3), as follows. Flow cells were activated individually by injecting a freshly mixed solution of 0.2M EDC in 0.05 M NHS at 30 μl/min. […] Excess NHS ester was deactivated using a 1 M ethanolamine solution. […] The dissociation time was extended to 3600 s for the highest concentration. Surfaces were regenerated with 45 s injection of MgCl₂ […].
# [3] = target: T1, HER2 immobilised on a Biacore chip; assay: Biacore SPR, HER2 amine-coupled to the chip; Auristatin-F-C5 conjugate, DAR 3.3
# Procedure: as §1
# [4] = target: T1, HER2 immobilised on a Biacore chip; assay: Biacore SPR, HER2 amine-coupled to the chip; Auristatin-F-C5 conjugate, DAR 5.65
# Procedure: as §1
# [5] = target: T1, HER2 immobilised on a Biacore chip; assay: Biacore SPR, HER2 amine-coupled to the chip; MMAF-C5 conjugate, DAR 5.2
# Procedure: as §1
Binder,koff [1],kon [1],Kd [1] [nM],also measured
B1,3.7e-05 s⁻¹ and 3.69e-05 s⁻¹,3.9e+06 M⁻¹ s⁻¹ and 3.88e+06 M⁻¹ s⁻¹,–,Kd [2]: 0.0095 nM
B2,1.82e-05 s⁻¹,556000 M⁻¹ s⁻¹,–,Kd [3]: 0.0328 nM
B3,1.35e-05 s⁻¹,336000 M⁻¹ s⁻¹,–,Kd [4]: 0.0403 nM
B4,–,–,–,Kd [5]: 0.0196 nM; koff [5]: 3.4e-05 s⁻¹; kon [5]: 1.8e+06 M⁻¹ s⁻¹
B5,7.13e-05 s⁻¹,236000 M⁻¹ s⁻¹,0.302,–
B6,0.0171 s⁻¹,5.93e+06 M⁻¹ s⁻¹,2.9,–
B7,0.0042 s⁻¹,1.2e+06 M⁻¹ s⁻¹,3.6,–
B8,0.0042 s⁻¹,770000 M⁻¹ s⁻¹,5.4,–
